Columns and labels:
[1] = target: T1, human IL-23R-mouse Fc fusion protein (human; mouse, UniProt Q5VWK5 24-353); experiment: antigen ELISA, human IL-23R-Fc immobilized, HRP anti-human IgG, chemiluminescence
T1 construct: Expressed in FreeStyle 293 cells, purified; immobilized on the ELISA plate at 500 ng/mL; also called human IL-23R-Fc fusion protein; not shown: Fc region of mouse immunoglobulin (IgG2a) as encoded by the vector pFUSE-mIgG2A-Fc2 (InvivoGen); limits and any linker r
T1 sequence: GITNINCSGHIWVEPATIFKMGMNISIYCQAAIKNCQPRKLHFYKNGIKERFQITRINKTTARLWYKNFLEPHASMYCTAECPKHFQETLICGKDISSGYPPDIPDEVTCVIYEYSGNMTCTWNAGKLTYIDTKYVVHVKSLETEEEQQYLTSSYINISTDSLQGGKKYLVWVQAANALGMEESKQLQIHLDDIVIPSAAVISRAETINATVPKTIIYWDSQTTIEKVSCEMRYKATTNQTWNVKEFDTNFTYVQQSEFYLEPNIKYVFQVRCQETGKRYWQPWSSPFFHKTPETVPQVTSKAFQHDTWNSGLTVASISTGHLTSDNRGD
Protocol: (§1) The present inventors used an antigen ELISA to measure the antigen-specific binding activities of the fully human antibodies constructed in Example 6. A human or monkey IL-23R-Fc fusion protein was immobilized onto a Maxisorp 384-well plate (Nunc, Inc.) at a concentration of 500 ng/mL. A blocking agent (Blocking One; Nacalai Tesque, Inc.) was added thereto and allowed to stand at room temperature for 1 hour, followed by washing twice with a wash buffer [TPBS: 0.05% Tween-20-containing phosphate buffered saline (PBS)], and each of the purified antibody samples was suitably serially diluted and added thereto. Incubation was performed at room temperature for 1 hour, followed by washing four times with TPBS, and HRP-labeled anti-human IgG antibody (DAKO) which was 2000-fold diluted with dilution buffer was added as secondary antibody. Incubation was performed at room temperature for 1 hour, followed by washing four times with a washing buffer. A BM-chemiluminescence ELISA substrate (POD) (Roche Diagnostics) that is a reagent for detecting chemiluminescence was added thereto and the amount of chemiluminescence was measured with an EnVision counter (Perkin Elmer). Each of the antibodies was tested in duplicate, and the EC 50 was analyzed by curve fitting.

[2] = target: T2, monkey IL-23R-mouse Fc fusion protein (monkey; mouse); experiment: antigen ELISA, monkey IL-23R-Fc immobilized, HRP anti-human IgG, chemiluminescence
T2 construct: extracellular domain; also called monkey IL-23R-Fc fusion protein
Protocol: as §1

human IL-23R [3] = target: T3, human IL-23R (human, UniProt Q5VWK5 24-629); experiment: cell-based or functional assay
T3 sequence: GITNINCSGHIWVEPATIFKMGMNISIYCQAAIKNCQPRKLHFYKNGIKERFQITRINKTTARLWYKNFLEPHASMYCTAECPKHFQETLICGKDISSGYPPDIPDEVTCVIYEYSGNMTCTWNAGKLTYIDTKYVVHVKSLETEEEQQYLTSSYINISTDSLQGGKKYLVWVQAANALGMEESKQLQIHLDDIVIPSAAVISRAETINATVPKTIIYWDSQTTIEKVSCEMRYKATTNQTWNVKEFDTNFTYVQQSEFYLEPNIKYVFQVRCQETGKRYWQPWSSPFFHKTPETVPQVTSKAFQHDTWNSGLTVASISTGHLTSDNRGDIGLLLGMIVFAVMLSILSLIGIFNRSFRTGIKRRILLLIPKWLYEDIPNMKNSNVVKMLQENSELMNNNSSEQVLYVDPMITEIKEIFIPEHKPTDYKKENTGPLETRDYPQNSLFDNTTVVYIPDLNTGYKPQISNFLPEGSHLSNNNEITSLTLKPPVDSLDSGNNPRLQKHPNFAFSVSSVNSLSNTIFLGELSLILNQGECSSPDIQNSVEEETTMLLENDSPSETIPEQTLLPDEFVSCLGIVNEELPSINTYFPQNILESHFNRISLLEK

human IL-23R [4] = target: T3, human IL-23R; experiment: cell-based or functional assay; remark: listed apart in the source
[5] = target: T2, monkey IL-23R-mouse Fc fusion protein; experiment: antigen ELISA, monkey IL-23R-Fc immobilized, HRP anti-mouse Ig, chemiluminescence
Protocol: (§2) The present inventors used an antigen ELISA to measure the antigen-specific binding activity of the antibody. The human or monkey IL-23R-Fc fusion protein was immobilized onto a Maxisorp 384-well plate (Nunc, Inc.) at a concentration of 500 ng/mL. A blocking agent (Blocking One; Nacalai Tesque, Inc.) was added thereto and allowed to stand at room temperature for 1 hour, followed by washing twice with a wash buffer [TPBS: a phosphate buffered saline (PBS) containing 0.05% Tween-20], and the purified antibody samples were suitably serially diluted and added thereto. Incubation was performed at room temperature for 1 hour, followed by washing four times with TPBS, and HRP-rabbit anti-mouse Ig antibody (DAKO) which was 2000-fold diluted with a dilution buffer was added. Incubation was performed at room temperature for 1 hour, followed by washing four times with a wash buffer. A BM-chemiluminescence ELISA substrate (POD) (Roche Diagnostics), which is a reagent for detecting chemical luminescence, was added, and the amount of chemiluminescence was measured with an EnVision counter (Perkin Elmer). Each antibody was tested in duplicate and the EC50 was analyzed by curve fitting. In this test, a fusion antibody obtained by replacing the Fc region of the known humanized anti-human IL-23R antibody hum20D7 (patent document 1) with the mouse Fc region (hereinafter referred to as hum20D7-mFc) was used as a comparative antibody. Also, the reason why the hum20D7 was fused with the mouse Fc region to prepare a fusion protein was to use anti-mouse Ig antibody as secondary antibody, and the mouse Fc region could be recognized by the anti-mouse Ig antibody, thereby rendering it possible to measure activity.

[6] = target: T1, human IL-23R-mouse Fc fusion protein; experiment: antigen ELISA, human IL-23R-Fc immobilized, HRP anti-mouse Ig, chemiluminescence
Protocol: as §2

B1: fully human antibody 25-3 (antibody, human IgG1, kappa, V domains shown)
VH: QVQLQESGPGQVKPSQTLSLTCSVSGGSIDSGDHYWTWIRQHPGEVLEWIGYIYSSGHTYYSPSLKSRLTMSLDTSKNQFSLRLSSVTAADTAVYYCARVGDYEWFDTWGQGTLVTVSS
VL: DIVMTQSPDSLAVSLGERATINCKSSQTILYPSNNMNYLGWYQQRAGQSPRLLIYWASTRESGVPDRFSGSGSGTDFTLTISSLQAEDVAVYYCQQYYSSLPTFGQGTKVEIKR
notes: Human Ig gamma1 / human kappa constant regions; also called 25-3 (fully human); fully human 25-3 antibody
[1]
  EC50: 0.0195 µg/mL
[2]
  EC50: 0.0112 µg/mL
Human IL-23R [3]
  IC50, inhibition of human IL-23-inducible Kit-225 cell proliferation: 0.0035 µg/mL
Human IL-23R [4]
  IC50, IL-23-stimulated STAT3 phosphorylation in CD4 lymphocytes of human whole blood: 0.0007 µg/mL

B2: 25-3 (chimeric) (antibody, V domains shown)
VH: QVQLQESGPGQVKPSQTLSLTCSVSGGSIDSGDHYWTWIRQHPGEVLEWIGYIYSSGHTYYSPSLKSRLTMSLDTSKNQFSLRLSSVTAADTAVYYCARVGDYEWFDTWGQGTLVTVSS
VL: DIVMTQSPDSLAVSLGERATINCKSSQTILYPSNNMNYLGWYQQRAGQSPRLLIYWASTRESGVPDRFSGSGSGTDFTLTISSLQAEDVAVYYCQQYYSSLPTFGQGTKVEIKR
[5]
  EC50: 0.028 µg/mL
[6]
  EC50: 0.021 µg/mL

B3: fully human antibody 32-28 (antibody, human IgG1, kappa, V domains shown)
VH: QVHLVQSGTEVRKPGASVKVSCKVSGYTLNELAIHWVRQAPGKGLEWMGGFDPEHGEIIYAQRFQGRVTLPEDTSTDTAYLDLFNLRSEDTAVYFCATEAAPFDYWGQGTLVIVSS
VL: DIQMTQSPSTLSASVGDRVTITCRASQSLSSWLAWYQQKPGKAPKLLIYKASSLESGVPSRFSGSGSGTDFTLTISSLQPDDFATYYCQQYDIYPRTFGQGTKVEIKR
notes: Human Ig gamma1 / human kappa constant regions; also called 32-28 (fully human); fully human 32-28 antibody
[1]
  EC50: 0.0131 µg/mL
[2]
  EC50: 0.0171 µg/mL
Human IL-23R [3]
  IC50, inhibition of human IL-23-inducible Kit-225 cell proliferation: 0.0014 µg/mL
Human IL-23R [4]
  IC50, IL-23-stimulated STAT3 phosphorylation in CD4 lymphocytes of human whole blood: 0.00016 µg/mL

B4: 32-28 (chimeric) (antibody, V domains shown)
VH: QVHLVQSGTEVRKPGASVKVSCKVSGYTLNELAIHWVRQAPGKGLEWMGGFDPEHGEIIYAQRFQGRVTLPEDTSTDTAYLDLFNLRSEDTAVYFCATEAAPFDYWGQGTLVIVSS
VL: DIQMTQSPSTLSASVGDRVTITCRASQSLSSWLAWYQQKPGKAPKLLIYKASSLESGVPSRFSGSGSGTDFTLTISSLQPDDFATYYCQQYDIYPRTFGQGTKVEIKR
[5]
  EC50: 0.024 µg/mL
[6]
  EC50: 0.018 µg/mL

B5: fully human antibody 34-58 (antibody, human IgG1, kappa, V domains shown)
VH: QVHLVQSGTEVRKPGASVKVSCKVSGYTLNELAIHWVRQAPGKGLEWMGGFDPEHGEIIYAQRFQGRITLPEDTSTDTAYMDLVNLRSEDTAVYFCTTEAAPFDYWGQGSLVIVSS
VL: DIQMTQSPSTLSASVGDRVTITCRASQSLSNWLAWYQQKPGKAPKLLIYKASSLESGVPSRFSGSGSGTDFTLTISGLQPDDFATYYCQQYDIYPRTFGQGTKVEIKR
notes: Human Ig gamma1 / human kappa constant regions; also called 34-58 (fully human); fully human 34-58 antibody
[1]
  EC50: 0.0146 µg/mL
[2]
  EC50: 0.0148 µg/mL
Human IL-23R [3]
  IC50, inhibition of human IL-23-inducible Kit-225 cell proliferation: 0.0037 µg/mL
Human IL-23R [4]
  IC50, IL-23-stimulated STAT3 phosphorylation in CD4 lymphocytes of human whole blood: 0.00051 µg/mL

B6: fully human antibody 32-36 (antibody, human IgG1, kappa, V domains shown)
VH: QVQMVQSGAEVKRPGASVKVSCKVSGYTLNELGIHWVRQAPGKGLEWMGGFDPEHGKIIYAQRFQGRLTMPEDTSTDTAYMELSSLTSEDTAVYYCATVAAPLDYWGQGTLVTVSS
VL: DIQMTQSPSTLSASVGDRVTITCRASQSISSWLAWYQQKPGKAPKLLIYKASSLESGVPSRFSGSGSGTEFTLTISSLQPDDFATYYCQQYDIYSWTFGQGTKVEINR
notes: Human Ig gamma1 / human kappa constant regions; also called 32-36 (fully human); fully human 32-36 antibody
[1]
  EC50: 0.0218 µg/mL
[2]
  EC50: 0.0331 µg/mL
Human IL-23R [3]
  IC50, inhibition of human IL-23-inducible Kit-225 cell proliferation: 0.0067 µg/mL
Human IL-23R [4]
  IC50, IL-23-stimulated STAT3 phosphorylation in CD4 lymphocytes of human whole blood: 0.0082 µg/mL

B7: fully human antibody 30-15 (antibody, human IgG1, kappa, V domains shown)
VH: QVQLVQSGAEVKKPGASMKVSCKVSGYTLNELSIHWVRQAPGKGLEWMGGFDPEHGETVYAQNFQDRVTLTEDTSTDTSYMGLNNLRSDDTAVYYCAAESYGDYEFWGQGTLVTVSS
VL: DIQMTQSPSSVSASVGDRVTITCRASQGINNWLAWYQQKPGKAPKVLIYTASSLQSGVPSRFSGSGSGTDFTLTISSLQPEDFATYYCQQANSHPWTFGQGTKVEIKR
notes: Human Ig gamma1 / human kappa constant regions; also called 30-15 (fully human); fully human 30-15 antibody
[1]
  EC50: 0.0118 µg/mL
[2]
  EC50: 0.0076 µg/mL
Human IL-23R [3]
  IC50, inhibition of human IL-23-inducible Kit-225 cell proliferation: 0.0014 µg/mL
Human IL-23R [4]
  IC50, IL-23-stimulated STAT3 phosphorylation in CD4 lymphocytes of human whole blood: 0.013 µg/mL

B8: fully human antibody 30-16 (antibody, human IgG1, kappa, V domains shown)
VH: QVQVVQSGAEVKKPGASVKVSCKVSGYTLIELAIHWVRQVPGKGLEWMGGFDPEHGETIYAQKFQGRVTMTEDTSTDTAYMELNNLRSEDTAVYYCAILEAGDLDCWGQGTLVTVSS
VL: DIQMTQSPSSVSASVGDRVTITCRASQGISNWLAWYQQKPGKAPKVLIYTASSLQSGVPSRFSGSGSGTDFTLTVSGLQPEDFGTYYCQQANSFPFTFGPGTKVDIKR
notes: Human Ig gamma1 / human kappa constant regions; also called 30-16 (fully human); fully human 30-16 antibody
[1]
  EC50: 0.0165 µg/mL
[2]
  EC50: 0.0108 µg/mL
Human IL-23R [3]
  IC50, inhibition of human IL-23-inducible Kit-225 cell proliferation: 0.0023 µg/mL
Human IL-23R [4]
  IC50, IL-23-stimulated STAT3 phosphorylation in CD4 lymphocytes of human whole blood: 0.0045 µg/mL

B9: 30-16 (chimeric) (antibody, V domains shown)
VH: QVQVVQSGAEVKKPGASVKVSCKVSGYTLIELAIHWVRQVPGKGLEWMGGFDPEHGETIYAQKFQGRVTMTEDTSTDTAYMELNNLRSEDTAVYYCAILEAGDLDCWGQGTLVTVSS
VL: DIQMTQSPSSVSASVGDRVTITCRASQGISNWLAWYQQKPGKAPKVLIYTASSLQSGVPSRFSGSGSGTDFTLTVSGLQPEDFGTYYCQQANSFPFTFGPGTKVDIKR
[5]
  EC50: 0.069 µg/mL
[6]
  EC50: 0.019 µg/mL

B10: 30-15 (chimeric) (antibody, V domains shown)
VH: QVQLVQSGAEVKKPGASMKVSCKVSGYTLNELSIHWVRQAPGKGLEWMGGFDPEHGETVYAQNFQDRVTLTEDTSTDTSYMGLNNLRSDDTAVYYCAAESYGDYEFWGQGTLVTVSS
VL: DIQMTQSPSSVSASVGDRVTITCRASQGINNWLAWYQQKPGKAPKVLIYTASSLQSGVPSRFSGSGSGTDFTLTISSLQPEDFATYYCQQANSHPWTFGQGTKVEIKR
[5]
  EC50: 0.016 µg/mL
[6]
  EC50: 0.017 µg/mL

B11: fully human antibody 30-18 (antibody, human IgG1, kappa, V domains shown)
VH: QVQLVQSGAEVKKPGASVKVSCKVSGYTLNELSIHWVRQAPGKGLEWMGGFDPEHSETLYAQNFQDRLTLTEDTSTETACMELNSLRSDDTAVYYCAAESYGDYEFWGQGTLVTVSS
VL: DIQMTQSPSSVSASVGDRVTITCRASQDISSWLAWYQQKPGKAPKVLIYTASSLQSGVPSRFSGSGSGTDFTLTISSLQPEDFATYYCQQANSHPWTFGQGTKVEIKR
notes: Human Ig gamma1 / human kappa constant regions; also called 30-18 (fully human); fully human 30-18 antibody
[1]
  EC50: 0.0136 µg/mL
[2]
  EC50: 0.0084 µg/mL
Human IL-23R [3]
  IC50, inhibition of human IL-23-inducible Kit-225 cell proliferation: 0.0033 µg/mL
